Changes are numbered by the printed parent chain. Like-named read-outs stand apart in the source and are kept apart here.
B1: HB1.6928.2.3 (designed binder)
chain: CIEQSFTTLFACQTAAEIWRAFGYTVKIMVDNGNCRLHVC
modifications: not checked
B2: CS15990 A13_r31_TAWQT Thr-40-Thr (designed binder)
chain: B1 chain with C1T, C12A, V30Q, C35W, C40T

Tests used:
[1] = molecular target: HA of Ft. Monmouth influenza virus (on virions) (influenza virus strain Ft. Monmouth); assay: cell-based or functional assay
[2] = molecular target: HA of Ft. Monmouth influenza virus (on virions) (influenza virus strain Ft. Monmouth); assay: cell-based or functional assay; remark: listed apart in the source

Row | Binder | EC50 values for inhibition of viral replication in vitro [1] | EC50 values for inhibition of viral replication in vitro [2]
1 | B1 | 0.02 ng/mL | 
2 | B2 |  | 2 ng/mL
